Experimental data as given in patent publication US20120107330A1 (published 2012).
Changes are numbered by the printed parent chain.

T1: human TNFR1 (recombinant, R&D Systems cat no. 636-R1/CF, biotinylated) (human, UniProt P19438 30-211, limits assumed, biotinylated with EZ-Link NHS-LC-LC-biotin)
T1 construct: it is not tied to the BIAcore reagent; also called p55; hTNFR1
T1 sequence (looked up): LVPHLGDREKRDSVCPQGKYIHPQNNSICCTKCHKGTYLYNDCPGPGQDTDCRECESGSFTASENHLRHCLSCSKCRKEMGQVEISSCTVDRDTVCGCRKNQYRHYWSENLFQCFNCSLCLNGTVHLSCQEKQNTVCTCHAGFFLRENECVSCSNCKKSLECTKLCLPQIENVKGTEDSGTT

T2: mouse TNFR1 (recombinant, R&D Systems cat no. 425-R1-050/CF, biotinylated) (mouse, UniProt P25118 22-212, biotinylated with EZ-Link NHS-LC-LC-biotin)
T2 construct: also called murine TNFR1; biotinylated mouse TNFR1
T2 sequence (looked up): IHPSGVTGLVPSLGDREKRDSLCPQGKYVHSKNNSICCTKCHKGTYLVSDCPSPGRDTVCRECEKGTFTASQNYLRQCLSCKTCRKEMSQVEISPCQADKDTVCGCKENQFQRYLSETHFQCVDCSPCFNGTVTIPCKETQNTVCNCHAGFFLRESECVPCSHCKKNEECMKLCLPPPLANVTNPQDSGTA

T3: mouse TNFR1 on L929 cells (mouse, UniProt P25118 30-454)
T3 sequence (looked up): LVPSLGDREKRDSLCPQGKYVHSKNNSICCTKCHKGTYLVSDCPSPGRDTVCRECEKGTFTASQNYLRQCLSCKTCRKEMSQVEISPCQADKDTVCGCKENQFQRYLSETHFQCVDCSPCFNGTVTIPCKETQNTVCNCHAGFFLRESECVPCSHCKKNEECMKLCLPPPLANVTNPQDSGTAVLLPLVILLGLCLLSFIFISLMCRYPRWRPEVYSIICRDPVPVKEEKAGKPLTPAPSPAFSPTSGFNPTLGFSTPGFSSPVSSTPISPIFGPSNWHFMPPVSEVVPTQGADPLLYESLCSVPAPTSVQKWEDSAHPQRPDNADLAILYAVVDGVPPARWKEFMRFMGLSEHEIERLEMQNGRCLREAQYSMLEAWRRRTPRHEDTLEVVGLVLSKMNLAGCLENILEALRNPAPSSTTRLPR

T4: human TNFR1 on MRC-5 cells (human, UniProt P19438 30-455)
T4 sequence (looked up): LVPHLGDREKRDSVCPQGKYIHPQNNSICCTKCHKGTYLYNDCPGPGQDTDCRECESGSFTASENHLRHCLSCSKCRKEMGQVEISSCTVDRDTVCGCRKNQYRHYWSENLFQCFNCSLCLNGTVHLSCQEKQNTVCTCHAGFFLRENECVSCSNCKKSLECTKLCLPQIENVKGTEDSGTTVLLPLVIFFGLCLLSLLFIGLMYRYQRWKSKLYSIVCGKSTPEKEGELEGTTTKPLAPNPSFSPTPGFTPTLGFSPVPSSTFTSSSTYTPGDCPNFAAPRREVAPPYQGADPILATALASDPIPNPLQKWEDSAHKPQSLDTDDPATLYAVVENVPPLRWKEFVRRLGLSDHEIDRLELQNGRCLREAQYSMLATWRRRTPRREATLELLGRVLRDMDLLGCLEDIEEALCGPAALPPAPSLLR

T5: Cynomologus monkey TNFR1 on CYNOM-K1 cells (Cynomolgus monkey, UniProt Q2PFV5 30-455)
T5 sequence: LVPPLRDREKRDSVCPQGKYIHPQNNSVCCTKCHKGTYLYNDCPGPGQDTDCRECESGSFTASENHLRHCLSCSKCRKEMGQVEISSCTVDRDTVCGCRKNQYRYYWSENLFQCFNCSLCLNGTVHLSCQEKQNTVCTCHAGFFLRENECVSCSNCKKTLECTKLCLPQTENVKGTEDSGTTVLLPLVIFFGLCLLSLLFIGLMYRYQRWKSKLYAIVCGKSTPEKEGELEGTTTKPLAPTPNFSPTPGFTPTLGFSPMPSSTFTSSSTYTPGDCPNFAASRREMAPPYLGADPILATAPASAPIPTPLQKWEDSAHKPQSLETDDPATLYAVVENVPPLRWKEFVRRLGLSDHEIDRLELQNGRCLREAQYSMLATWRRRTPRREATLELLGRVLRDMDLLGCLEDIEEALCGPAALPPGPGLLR

B1: DOM1h-574-72 (other)
VH: EVQLLESGGGLVQPGGSLRLSCAASGFTFVKYSMGWVRQAPGKGLEWVSQISNTADRTYYAHSVKGRFTISRDNSKNTLYLQMNSLRAEDTAVYYCAIYTGRWVPFEYWGQGTLVTVSS
notes: VH dAb; expressed in E. coli, purified on Protein A
B2: DOM1h-574-109 (other)
VH: B1 VH with N53D
notes: VH dAb
B3: DOM1h-574-138 (other)
VH: B1 VH with V30F, N53D, V104A
notes: VH dAb
B4: DOM1h-574-135 (other)
VH: B1 VH with N53D, A61T
notes: VH dAb
B5: DOM1h-574-133 (other)
VH: B1 VH with N53D, A61D, V104E, E107V
notes: VH dAb
B6: DOM1h-574-155 (other)
VH: B1 VH with V30L, N53D
notes: VH dAb
B7: DMS0186 (bispecific antibody)
chain: EVQLLESGGGLVQPGGSLRLSCAASGFTFVKYSMGWVRQAPGKGPEWVSQISNTGDRTYYADSVKGRFTISRDNSKNTLYLQMNSLRAEDTAVYYCAIYTGRWEPFDYWGQGTLVTVSSASTDIQMTQSPSSLSASVGDRVTITCRASRPIGTMLSWYQQKPGKAPKLLILFGSRLQSGVPSRFSGSGSGTDFTLTISSLQPEDFATYYCAQAGTHPTTFGQGTKVEIKRAAAEQKLISEEDLN
notes: anti-TNFR1 dAb / AlbudAb in-line fusion
B8: DMS0184 (bispecific antibody)
chain: EVQLLESGGGLVQPGGSLRLSCAASGFTFVKYSMGWVRQAPGKGPEWVSQISNTGDRTYYADSVKGRFTISRDNSKNTLYLQMNSLRAEDTAVYYCAIYTGRWEPFDYWGQGTLVTVSSASTSGPSDIQMTQSPSSLSASVGDRVTITCRASRPIGTTLSWYQQKPGKAPKLLIWFGSRLQSGVPSRFSGSGSGTDFTLTISSLQPEDFATYYCAQAGTHPTTFGQGTKVEIKR
notes: as for B7
B9: DMS0188 (bispecific antibody)
chain: EVQLLESGGGLVQPGGSLRLSCAASGFTFVKYSMGWVRQAPGKGPEWVSQISNTGDRTYYADSVKGRFTISRDNSKNTLYLQMNSLRAEDTAVYYCAIYTGRWEPFDYWGQGTLVTVSSASTSGPSDIQMTQSPSSLSASVGDRVTITCRASRPIGTMLSWYQQKPGKAPKLLILFGSRLQSGVPSRFSGSGSGTDFTLTISSLQPEDFATYYCAQAGTHPTTFGQGTKVEIKRAAAEQKLISEEDLN
notes: as for B7
B10: DMS0163 (bispecific antibody)
chain: B9 chain with F176A, G177F
notes: as for B7

molecular target: T1, human TNFR1 (recombinant, R&D Systems …); test: BIAcore, human TNFR1 on SA chip
Text: (§1) BIAcore was done to determine the association and dissociation rates of the different dAbs and in that way establish their binding affinity for both human and mouse TNFR1. Experiments were done using biotinylated TNFR1 (R&D Systems), of the respective species, coupled to streptavidin-coated BIAcore chips followed by injection of a concentration range of the dAbs.

In order of falling Kd:
1. B1  350 pM
2. B5  340 pM
3. B2  230 pM
4. B4  210 pM
5. B6  180 pM
6. B3  150 pM

In order of rising koff:
1. B3  3.8e-05 s⁻¹
2. B6  4.3e-05 s⁻¹
3. B4  5.2e-05 s⁻¹
4. B2  5.5e-05 s⁻¹
5. B1  8.4e-05 s⁻¹
6. B5  8.8e-05 s⁻¹

In order of falling kon:
1. B5  260000 M⁻¹ s⁻¹
2. B1  250000 M⁻¹ s⁻¹
3. B3  250000 M⁻¹ s⁻¹
4. B4  250000 M⁻¹ s⁻¹
5. B2  240000 M⁻¹ s⁻¹
6. B6  240000 M⁻¹ s⁻¹

molecular target: T6, mouse serum albumin (MSA, Sigma-Aldrich) (mouse, UniProt P07724 25-608); test: BIAcore, MSA on CM5 chip
T6 construct: also called mouse albumin
Method: (§2) FIG. 22. BIAcore analysis for binding of DOM0100-AlbudAb in-line fusions to mouse serum albumin (MSA). MSA (Sigma-Aldrich) was coated on a BIAcore CM5 chip using EDC/NHS chemistry according to manufacturer's instructions. Subsequently, the DMS constructs, each consisting N-terminally to C-terminally of an anti-TNFR1 dAb-Linker-AlbudAb and identified in Table 6, were injected at 1 μM over the MSA surface and binding was monitored. […] The corresponding BIAcore trace for each DMS clone is indicated with an arrow.
After expression and purification, all constructs were tested on the BIAcore for binding to both mouse and human serum albumin. The off-rates were determined and used to discriminate between the AlbudAbs for their suitability in prolonging the half-life of the fusion molecule. Whereas the linker had little influence on the affinity of the AlbudAb for albumin, a significant difference existed between the dAbs and their albumin affinity. The best AlbudAb for mouse binding was DOM7h-11-15 followed by DOM7m-16 and DOM7h-11-12 (FIG. 22).

In order of rising koff:
1. B10  0.0062 s⁻¹
2. B7  0.08 s⁻¹
3. B9  0.08 s⁻¹
4. B8  0.72 s⁻¹

molecular target: T7, human serum albumin (HSA, Sigma-Aldrich) (human, UniProt P02768 25-609); test: BIAcore, HSA on CM5 chip
T7 construct: also called human albumin
T7 sequence (P02768 25-609 limits assumed): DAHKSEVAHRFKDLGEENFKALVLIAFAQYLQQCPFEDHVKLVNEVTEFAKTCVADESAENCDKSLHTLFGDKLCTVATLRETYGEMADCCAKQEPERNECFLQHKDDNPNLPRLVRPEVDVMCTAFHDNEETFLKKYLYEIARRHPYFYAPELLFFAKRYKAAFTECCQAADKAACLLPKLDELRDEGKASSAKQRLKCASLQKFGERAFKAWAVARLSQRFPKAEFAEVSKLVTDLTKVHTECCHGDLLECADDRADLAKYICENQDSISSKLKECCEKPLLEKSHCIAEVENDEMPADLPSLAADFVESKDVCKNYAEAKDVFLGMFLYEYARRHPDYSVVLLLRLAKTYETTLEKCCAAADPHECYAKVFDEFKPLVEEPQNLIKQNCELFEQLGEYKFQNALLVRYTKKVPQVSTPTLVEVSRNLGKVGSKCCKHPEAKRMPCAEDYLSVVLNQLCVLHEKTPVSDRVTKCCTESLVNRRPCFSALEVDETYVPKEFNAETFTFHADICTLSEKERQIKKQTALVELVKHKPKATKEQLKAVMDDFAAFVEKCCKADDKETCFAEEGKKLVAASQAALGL
Method: as §2, with “23.” for “22.”, “human” for “mouse”, “(HSA). HSA” for “(MSA). MSA”, “HSA” for “MSA”

In order of rising koff:
1. B10  0.0024 s⁻¹
2. B7  0.12 s⁻¹
3. B9  0.12 s⁻¹
4. B8  0.16 s⁻¹

molecular target: T2, mouse TNFR1 (recombinant, R&D Systems …); test: BIAcore, mouse TNFR1 on SA chip
Text: as §1

In order of falling Kd:
1. B1  6900 pM
2. B5  5200 pM
3. B4  3800 pM
4. B6  3700 pM
5. B2  2800 pM
6. B3  2400 pM

In order of rising koff:
1. B3  0.0003 s⁻¹
2. B2  0.00033 s⁻¹
3. B6  0.00033 s⁻¹
4. B4  0.00045 s⁻¹
5. B1  0.00068 s⁻¹
6. B5  0.00075 s⁻¹

In order of falling kon:
1. B5  140000 M⁻¹ s⁻¹
2. B3  130000 M⁻¹ s⁻¹
3. B2  120000 M⁻¹ s⁻¹
4. B4  110000 M⁻¹ s⁻¹
5. B6  110000 M⁻¹ s⁻¹
6. B1  100000 M⁻¹ s⁻¹

molecular target: T1, human TNFR1 (recombinant, R&D Systems …); test: BIAcore T100, biotinylated human TNFR1 on chip
Method: Furthermore, the affinity and potency of the purified fusion molecules were determined using a BIAcore T100 and the MRC5 cell assay, respectively. The BIAcore T100 is a highly sensitive BIAcore version ideally suited for determination of high affinity binders (Papalia et al., Anal Biochem. 359, p 112 (2006)). Biotinylated, human TNFR1 was coated on the chip and each of the twelve AlbudAb fusions were passed over this surface at four different concentrations (2, 10, 50 and 250 nM). […] This improvement is observed regardless of the AlbudAb used for pairing and largest for the pairings with DOM7h-14-18. A second experiment used to establish if the different pairings affected the functional activity of the anti-TNFR1 dAb was the MRC5 cell assay (Table 8). A more marked difference between the pairings is observed in the MRC5 assay, in which the best potencies are observed in pairings with DOM7h-11-3 and DOM7h-11-12 while pairings with DOM7h-14-10 (DMS0117) lead to significant decreases in potency.

For B1, the Kd was 530 pM.

For B1, the koff was 0.00011 s⁻¹.

B1 showed a kon of 200000 M⁻¹ s⁻¹.

molecular target: T3, mouse TNFR1 on L929 cells; test: cell-based or functional assay

In order of falling “Mouse L929 ND50” value:
1. B5  110 nM
2. B6  67 nM
3. B4  47 nM
4. B1  46 nM
5. B3  23 nM
6. B2  20 nM

molecular target: T4, human TNFR1 on MRC-5 cells; test: cell-based or functional assay

In order of rising “Human MRC5 ND50” value:
1. B3  1.4 nM
2. B2  1.8 nM
3. B4  1.8 nM
4. B5  2.1 nM
5. B6  2.1 nM
6. B1  2.7 nM

molecular target: T5, Cynomologus monkey TNFR1 on CYNOM-K1 …; test: cell-based or functional assay

In order of falling “Cynomologus CYNOM-K1 ND50” value:
1. B1  2.3 nM
2. B2  2.3 nM
3. B5  1.7 nM
4. B6  1.6 nM
5. B4  1.5 nM
6. B3  1.2 nM

molecular target: T4, human TNFR1 on MRC-5 cells; test: cell-based or functional assay; remark: another data set of the same source

B1 was tested, and the “MRC5 (ND50 in nM)” value was 2.7 nM.

molecular target: T4, human TNFR1 on MRC-5 cells; test: cell-based or functional assay; remark: another data set of the same source

In order of rising “ND50 (MRC5)” value:
1. B10  12 nM
2. B9  17 nM
3. B8  19 nM
4. B7  20 nM
